The record followed here is patent publication US20240400677A1 (ELECTRA THERAPEUTICS, published 2024).

Positions count from the first letter of the chain named.

The target of test [1] is T1, human SIRPγ-His monomer protein (human, UniProt Q9P1W8 29-360).
T1 construct: also called hSIRPγ
Nature of the test: BLI Octet, antibody on AHC, global 1:2 model. As to the method:
(§1) Antibodies were coated onto anti-human Fc capture (AHC) biosensors. SIRP-His monomer protein or bivalent SIRP protein with mouse Fc at four concentrations (200 nM, 100 nM, 50 nM, 25 nM) were exposed to the biosensor to measure on-rate kinetics of SIRP antibodies binding to SIRP protein. The biosensors were then exposed to wash buffer to measure off-rate kinetics. The resulting kinetic data were analyzed and fitted using a global 1:2 binding model.
(In BLI a coated tip is dipped into the sample, and binding shifts an interference pattern.)

The target of test [2] is T2, bivalent human SIRPγ protein with mouse Fc (human, UniProt Q9P1W8 29-360).
T2 construct: also called Human SIRPγ-mFc
Nature of the test: BLI Octet, antibody on AHC, global 1:2 model. As to the method: as §1

Test [3] deals with T3, cynomolgus monkey SIRPγ-His monomer protein (cynomolgus monkey, UniProt Q9P1W8 29-359 (human entry), limits assumed).
T3 construct: also called Cyno SIRPγ; Cyno SIRPγ-His
T3 chain: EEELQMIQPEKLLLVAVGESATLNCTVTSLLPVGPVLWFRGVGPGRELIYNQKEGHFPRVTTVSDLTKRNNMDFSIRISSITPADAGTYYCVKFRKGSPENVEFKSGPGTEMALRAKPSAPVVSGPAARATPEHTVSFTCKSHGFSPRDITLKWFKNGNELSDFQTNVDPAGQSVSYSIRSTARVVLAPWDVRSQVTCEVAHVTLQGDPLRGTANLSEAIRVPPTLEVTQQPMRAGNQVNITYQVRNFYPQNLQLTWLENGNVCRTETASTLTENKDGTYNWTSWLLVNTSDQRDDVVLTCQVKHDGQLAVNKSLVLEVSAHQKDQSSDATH
Nature of the test: BLI Octet, antibody on AHC, global 1:2 model. As to the method:
as §1

For test [4], the target named is T4, human SIRPβ1 on CHO cells (co-transfected with DAP12) (human, UniProt O00241 30-398).
T4 construct: whole, on cells; co-transfected with DAP12; also called Human SIRPβ1 CHO
Nature of the test: flow cytometry, CHO transfectants, anti-human IgG. The method in brief:
(§2)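 The CHO lines were stably transfected, with SIRPβ1 co-transfected with DAP12 where present. Titrated antibody was detected by labelled anti-human IgG and scored as MFI. The myc-scFv PPE was screened on these lines and on CHO-K1 parental cells, and fold change <2.0 was classed as non-binder.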
In general terms: A flow cytometer gives signals particle by particle.

The target of test [5] is T5, cynomolgus monkey SIRPα on CHO cells (cynomolgus monkey, UniProt A0A2K5VYQ9 31-507).
T5 construct: whole, on cells; also called Cyno SIRPα CHO
T5 sequence: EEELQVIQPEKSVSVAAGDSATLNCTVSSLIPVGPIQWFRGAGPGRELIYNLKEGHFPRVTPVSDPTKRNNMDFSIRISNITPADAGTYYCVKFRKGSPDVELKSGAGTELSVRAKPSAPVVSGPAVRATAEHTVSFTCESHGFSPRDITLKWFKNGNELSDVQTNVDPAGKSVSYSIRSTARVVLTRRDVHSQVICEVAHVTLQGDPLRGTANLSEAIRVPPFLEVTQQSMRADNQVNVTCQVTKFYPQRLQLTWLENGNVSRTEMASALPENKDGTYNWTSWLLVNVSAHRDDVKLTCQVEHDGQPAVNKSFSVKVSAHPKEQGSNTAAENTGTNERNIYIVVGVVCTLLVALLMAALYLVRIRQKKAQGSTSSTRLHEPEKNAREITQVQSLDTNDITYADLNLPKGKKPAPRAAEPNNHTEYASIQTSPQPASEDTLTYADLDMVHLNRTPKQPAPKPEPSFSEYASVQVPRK
Nature of the test: flow cytometry, CHO transfectants, anti-human IgG. In outline:
as §2

Test [6] addresses T6, extracellular binding domain of human SIRPγ (plate-coated) (human, UniProt Q9P1W8 29-360).
T6 construct: also called hSIRPγ
Put plainly: competition ELISA, coated SIRPγ ECD, antibody 1 h then 10 µg/mL biotinylated CD47-Fc (blocked ligand), streptavidin-HRP. As for the experimental part:
To carry out the competition experiment, the extracellular binding domain of SIRPγ was coated onto a high protein-binding plate and blocked. A titration of each SIRPγ antibody was incubated on the plate for 1 hour. […] Following a wash, streptavidin-HRP was added. The plate was washed again and developed using a chemiluminescent substrate. The plate was read on a plate reader to assess luminescence. […] A known blocker antibody was used as a positive control.
On the technique in general: In an ELISA, binding on a coated surface is turned into a signal by an enzyme label.

Test [7] deals with T6, extracellular binding domain of human …. Put plainly: ELISA, coated SIRP ECD (2 µg/mL), anti-human IgG, luminescence. In outline: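 Plate-coated SIRP extracellular domain (2 μg/mL), blocked, then exposed to purified antibodies in titration, after transient expression in Expi293F cells for 5 days and Protein A purification. Bound antibody is detected with anti-human IgG and a chemiluminescent substrate, and reported as relative luminescence units.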

T4 sequence (O00241 30-398): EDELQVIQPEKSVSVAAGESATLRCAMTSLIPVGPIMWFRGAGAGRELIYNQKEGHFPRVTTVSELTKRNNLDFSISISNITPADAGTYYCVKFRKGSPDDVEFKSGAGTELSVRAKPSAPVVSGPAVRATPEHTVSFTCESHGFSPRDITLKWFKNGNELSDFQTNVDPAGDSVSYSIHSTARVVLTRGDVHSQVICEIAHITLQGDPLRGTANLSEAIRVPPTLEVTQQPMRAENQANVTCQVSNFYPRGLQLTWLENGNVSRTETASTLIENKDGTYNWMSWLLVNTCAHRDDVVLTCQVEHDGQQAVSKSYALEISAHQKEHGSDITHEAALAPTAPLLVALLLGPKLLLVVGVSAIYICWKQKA
T6 sequence (Q9P1W8 29-360 limits assumed): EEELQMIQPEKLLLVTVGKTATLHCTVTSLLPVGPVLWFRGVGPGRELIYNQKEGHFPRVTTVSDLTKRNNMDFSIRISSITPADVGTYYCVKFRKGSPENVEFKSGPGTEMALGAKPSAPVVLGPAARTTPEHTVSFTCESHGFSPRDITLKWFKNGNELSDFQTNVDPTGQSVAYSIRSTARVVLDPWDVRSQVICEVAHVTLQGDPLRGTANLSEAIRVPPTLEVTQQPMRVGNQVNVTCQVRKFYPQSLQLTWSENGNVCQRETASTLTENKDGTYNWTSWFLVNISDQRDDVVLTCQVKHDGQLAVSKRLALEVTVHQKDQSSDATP
T2 sequence (Q9P1W8 29-360 limits assumed): as above
T1 sequence (Q9P1W8 29-360 limits assumed): as above

B1: Antibody 97 (antibody, V domains shown)
VH: QVQLVQSGAEVKKPGASVKVSCKASGHTFNNNYIHWVRQAPGQGLEWMGIINPSGGSTSYAQKFQGRVTMTRDTSTSTVYMELSSLRSEDTAVYYCARQIQDYGYYYYGMDVWGQGTTVTVSS
VL: EIVMTQSPATLSVSPGERATLSCRASQSVSKYLAWYQQKPGQAPRLLIYAISARAAGIPARFSGSGSGTEFTLTISSLQSEDFAVYYCQQYYSSPPTFGQGTKVEIK
B1: the Kd in test [1] amounted to 362 nM; in test [2], 48.4 nM; in test [3] it was 16.3 nM. Further, the binding result in test [4] and in test [5] was “no binding (tested: about 30 µg/mL)” in each case. The “IC50 (read off the curve)” value in test [6] was roughly 0.3 µg/mL.

B2: Antibody 95 (antibody, V domains shown)
VH: QVQLVQSGAEVKKPGASVKVSCKASGYTFTSYYMHWVRQAPGQGLEWMGWMNPNSGNTGYAQKFQGRVTMTRDTSTSTVYMELSSLRSEDTAVYYCARDQMYSSYGMDVWGQGTTVTVSS
VL: DIQMTQSPSSLSASVGDRVTITCRASESITNWLAWYQQKPGKAPKLLIYKASSLESGVPSRFSGSGSGTDFTLTISSLQPEDFATYYCQQSYGTPYTFGQGTKVEIK
As a reminder, the EC50 (read off the curve) is the concentration that produces a half-maximal response. Consider B2, for which, in test [7], the “EC50 (read off the curve)” value is roughly 0.07 µg/mL. For the same molecule, the Kd in test [1] turned out to be 193 nM; in test [2], 1280 nM; in test [3] it was 40.3 nM. Further, the binding result in test [4] and in test [5] was “no binding (tested: about 30 µg/mL)” in each case. Also, the “IC50 (read off the curve)” value in test [6] is roughly 1 µg/mL.

B3: Antibody 90 (antibody, V domains shown)
VH: QVQLVQSGAEVKKPGASVKVSCKASGYTFTSYYMHWVRQAPGQGLEWMGWMNPNSDNTGYAQKFQGRVTMTRDTSTSTVYMELSSLRSEDTAVYYCARVGVGYGYYYYGMDVWGQGTTVTVSS
VL: B2 VL with S26G, E27Q, T30G, N31D, W32Y, A34N, K50A, E55Q, G93S, Y96W
For the molecule B3, the Kd in test [1] was 175 nM; in test [2] it was 87.6 nM; in test [3], 69.2 nM. For the same molecule, the binding result in test [4] and in test [5] was “no binding (tested: about 30 µg/mL)” each time. Further, the “IC50 (read off the curve)” value in test [6] was roughly 0.2 µg/mL.

B4: Antibody 83 (antibody, V domains shown)
VH: QVQLVQSGAEVKKPGASVKVSCKASGYSFSDYYMHWVRQAPGQGLEWMGWMSPNSGNTGYAQKFQGRVTMTRDTSTSTVYMELSSLRSEDTAVYYCARQREEYGHYYYGMDVWGQGTMVTVSS
VL: EIVMTQSPATLSVSPGERATLSCRASQSLGSTYLAWYQQKPGQAPRLLIYGASTRATGIPARFSGSGSGTEFTLTISSLQSEDFAVYYCQQYYSSPPTFGQGTKVEIK
Regarding B4, the Kd in test [1] worked out at 174 nM; in test [2], 53.2 nM; in test [3] it was 11.7 nM. Further, the binding result in test [4] and in test [5] was “no binding (tested: about 30 µg/mL)” throughout. In test [6], the “IC50 (read off the curve)” value is roughly 0.2 µg/mL.

B5: Antibody 94 (antibody, V domains shown)
VH: QVQLVQSGAEVKKPGASVKVSCKASGYTFTSYGISWVRQAPGQGLEWMGWISAYNGNTNYAQKFQGRVTMTRDTSTSTVYMELSSLRSEDTAVYYCARGTYYDYIWGSYRYSWFDYWGQGTLVTVSS
VL: not shown
For the molecule B5, the Kd in test [1] was found to be 30.1 nM; in test [2] it was 80.2 nM; in test [3], 42.6 nM. Further, the binding result in test [4] and in test [5] was “no binding (tested: about 30 µg/mL)” throughout. For the same molecule, the “IC50 (read off the curve)” value in test [6] was roughly 0.2 µg/mL.
